This is an account of results in patent US9127040B2, “Regulation of sodium channels by PLUNC proteins” (The University of North Carolina at Chapel Hill, priority 2011, dated 2015).

This test has as its target T1, αβγENaC (Rattus norvegicus, UniProt P37089+P37090+P37091, S518C).
T1 construct: expressed in transfected cells; host or cells: Xenopus laevis oocytes (cRNA injection)
T1 sequence (P37089 1-698): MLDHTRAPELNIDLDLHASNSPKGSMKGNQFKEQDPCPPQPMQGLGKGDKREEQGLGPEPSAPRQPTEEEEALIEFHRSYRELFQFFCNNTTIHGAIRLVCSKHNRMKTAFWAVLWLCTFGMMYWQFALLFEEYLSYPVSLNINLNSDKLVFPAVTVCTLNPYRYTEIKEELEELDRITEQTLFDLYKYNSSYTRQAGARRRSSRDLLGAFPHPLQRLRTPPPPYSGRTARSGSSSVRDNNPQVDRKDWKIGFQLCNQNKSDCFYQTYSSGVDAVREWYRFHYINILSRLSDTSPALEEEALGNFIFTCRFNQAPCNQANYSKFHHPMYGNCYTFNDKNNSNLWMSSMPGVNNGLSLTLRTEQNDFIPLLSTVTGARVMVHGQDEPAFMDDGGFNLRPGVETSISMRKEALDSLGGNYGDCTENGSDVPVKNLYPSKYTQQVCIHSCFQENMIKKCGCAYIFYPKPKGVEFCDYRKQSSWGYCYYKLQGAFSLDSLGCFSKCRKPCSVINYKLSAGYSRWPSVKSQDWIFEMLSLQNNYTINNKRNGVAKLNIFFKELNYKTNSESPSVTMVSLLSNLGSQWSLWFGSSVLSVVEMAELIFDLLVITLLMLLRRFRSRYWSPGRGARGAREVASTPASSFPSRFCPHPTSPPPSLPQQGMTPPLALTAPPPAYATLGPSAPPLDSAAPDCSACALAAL
T1 sequence (P37090 1-638 S518C): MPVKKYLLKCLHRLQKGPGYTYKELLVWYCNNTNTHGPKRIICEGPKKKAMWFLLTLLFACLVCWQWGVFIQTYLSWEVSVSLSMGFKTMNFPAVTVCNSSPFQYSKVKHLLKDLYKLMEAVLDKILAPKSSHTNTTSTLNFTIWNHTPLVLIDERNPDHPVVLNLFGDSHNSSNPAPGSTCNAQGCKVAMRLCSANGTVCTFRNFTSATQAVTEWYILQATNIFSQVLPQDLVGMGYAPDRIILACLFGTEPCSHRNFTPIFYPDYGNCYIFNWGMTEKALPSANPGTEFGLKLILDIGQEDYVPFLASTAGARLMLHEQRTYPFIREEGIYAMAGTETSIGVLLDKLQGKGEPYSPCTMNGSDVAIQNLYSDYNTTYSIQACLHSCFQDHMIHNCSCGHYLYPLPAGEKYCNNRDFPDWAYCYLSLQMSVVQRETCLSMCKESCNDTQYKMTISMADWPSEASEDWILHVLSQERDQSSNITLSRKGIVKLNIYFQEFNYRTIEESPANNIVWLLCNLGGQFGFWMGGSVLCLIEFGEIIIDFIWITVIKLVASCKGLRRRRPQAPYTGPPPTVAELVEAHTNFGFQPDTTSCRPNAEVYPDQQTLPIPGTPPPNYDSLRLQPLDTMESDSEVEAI
T1 sequence (P37091 1-650): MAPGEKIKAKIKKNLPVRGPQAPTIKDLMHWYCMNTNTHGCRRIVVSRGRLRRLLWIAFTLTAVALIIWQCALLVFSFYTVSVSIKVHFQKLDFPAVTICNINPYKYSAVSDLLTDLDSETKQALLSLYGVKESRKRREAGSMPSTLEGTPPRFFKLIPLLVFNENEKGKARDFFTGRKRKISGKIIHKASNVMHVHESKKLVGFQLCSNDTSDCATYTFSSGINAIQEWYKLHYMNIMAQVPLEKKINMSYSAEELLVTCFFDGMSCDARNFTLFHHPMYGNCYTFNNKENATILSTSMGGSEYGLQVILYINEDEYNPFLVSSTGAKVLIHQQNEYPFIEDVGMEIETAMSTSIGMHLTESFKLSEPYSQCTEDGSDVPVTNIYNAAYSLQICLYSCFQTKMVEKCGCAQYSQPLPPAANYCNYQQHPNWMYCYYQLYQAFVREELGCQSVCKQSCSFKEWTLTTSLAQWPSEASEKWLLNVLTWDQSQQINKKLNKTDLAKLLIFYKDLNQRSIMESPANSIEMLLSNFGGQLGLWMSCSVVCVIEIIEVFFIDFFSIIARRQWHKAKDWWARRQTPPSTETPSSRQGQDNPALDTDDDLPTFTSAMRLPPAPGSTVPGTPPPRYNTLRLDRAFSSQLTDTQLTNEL
The experiment in a line: Amiloride-sensitive whole cell current, two electrode voltage clamp, Xenopus laevis oocytes expressing αβγENaC. The test is classed as cell-based. The settings on record: Po increased to 1.0 by MTSET; SPLUNC1 coexpressed. Background: Two-electrode voltage clamp holds a large cell at a set potential and records current.

B1: SPLUNC1: human SPLUNC1 (SEQ ID NO:1), 256 amino acid secreted PLUNC family protein; rSPLUNC1 is the purified V5/6His-tagged recombinant form (protein, listed as Homo sapiens)
chain: MFQTGGLIVFYGLLAQTMAQFGGLPVPLDQTLPLNVNPALPLSPTGLAGSLTNALSNGLLSGGLLGILENLPLLDILKPGGGTSGGLLGGLLGKVTSVIPGLNNIIDIKVTDPQLLELGLVQSPDGHRLYVTIPLGIKLQVNTPLVGASLLRLAVKLDITAEILAVRDKQERIHLVLGDCTHSPGSLQISLLDGLGPLPIQGLLDSLTGILNKVLPELVQGNVCPLVNEVLRGLDITLVHDIVNMLIHGLQFVIKV
modifications: V5/6His tag in recombinant form
notes: rSPLUNC1 is the purified V5/6His-tagged recombinant form
With B1, the “overall current of ENaC containing βS518C mutant after MTSET” value is reported as “still reduced”.
